The numbers were not newly measured in patent US9814672B2, “Echogenic vehicle for clinical delivery of plasminogen activator and other fibrin-binding therapeutics to thrombi” (priority 2007, dated 2017), which cites them from elsewhere.

The Kd is the concentration at which binding is half-saturated.

One series relates to occluded femoral artery. Conditions: tPA infusion with transcutaneous ultrasound; cited from earlier work.
Another series concerns the target T1, fibrinogen αC domains (Homo sapiens, UniProt P02671).
T1 sequence (P02671 240-629 limits assumed): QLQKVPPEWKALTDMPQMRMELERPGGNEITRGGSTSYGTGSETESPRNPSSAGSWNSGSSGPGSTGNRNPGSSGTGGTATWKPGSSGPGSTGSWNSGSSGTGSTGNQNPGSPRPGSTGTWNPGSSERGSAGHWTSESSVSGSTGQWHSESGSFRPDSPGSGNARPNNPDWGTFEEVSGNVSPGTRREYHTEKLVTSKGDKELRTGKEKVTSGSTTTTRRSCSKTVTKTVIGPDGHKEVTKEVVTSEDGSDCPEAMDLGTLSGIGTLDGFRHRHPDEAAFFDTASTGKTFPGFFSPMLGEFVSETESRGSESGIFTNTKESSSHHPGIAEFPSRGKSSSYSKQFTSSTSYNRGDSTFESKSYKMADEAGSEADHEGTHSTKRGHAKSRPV
The note with it: Tsurupa and Medved 2001; cited from earlier work.

The target of the next series is T2, fibrin (Homo sapiens, UniProt P02671+P02675+P02679).
T2 construct: were incubated on replicate fibrin pads, prepared in microplate wells; purchased Calbiochem (EMD Biosciences, Inc., La Jolla, Calif.)
T2 sequence (P02671 36-629 limits assumed): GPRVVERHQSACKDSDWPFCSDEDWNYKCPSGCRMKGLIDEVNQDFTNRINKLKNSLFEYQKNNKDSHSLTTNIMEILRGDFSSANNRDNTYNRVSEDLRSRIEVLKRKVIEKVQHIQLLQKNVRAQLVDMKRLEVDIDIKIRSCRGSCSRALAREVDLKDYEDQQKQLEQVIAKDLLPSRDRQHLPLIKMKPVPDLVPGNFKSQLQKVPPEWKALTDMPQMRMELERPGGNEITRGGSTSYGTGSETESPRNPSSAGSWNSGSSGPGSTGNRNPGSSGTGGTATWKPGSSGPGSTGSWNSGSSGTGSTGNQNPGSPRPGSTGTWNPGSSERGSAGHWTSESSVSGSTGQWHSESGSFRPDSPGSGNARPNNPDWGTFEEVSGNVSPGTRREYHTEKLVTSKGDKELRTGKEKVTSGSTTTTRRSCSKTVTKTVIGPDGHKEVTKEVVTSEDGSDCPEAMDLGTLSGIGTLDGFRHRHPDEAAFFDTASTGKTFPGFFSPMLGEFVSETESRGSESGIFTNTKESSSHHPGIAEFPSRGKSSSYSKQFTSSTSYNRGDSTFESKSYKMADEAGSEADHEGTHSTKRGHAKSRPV
T2 sequence (P02675 45-491 limits assumed): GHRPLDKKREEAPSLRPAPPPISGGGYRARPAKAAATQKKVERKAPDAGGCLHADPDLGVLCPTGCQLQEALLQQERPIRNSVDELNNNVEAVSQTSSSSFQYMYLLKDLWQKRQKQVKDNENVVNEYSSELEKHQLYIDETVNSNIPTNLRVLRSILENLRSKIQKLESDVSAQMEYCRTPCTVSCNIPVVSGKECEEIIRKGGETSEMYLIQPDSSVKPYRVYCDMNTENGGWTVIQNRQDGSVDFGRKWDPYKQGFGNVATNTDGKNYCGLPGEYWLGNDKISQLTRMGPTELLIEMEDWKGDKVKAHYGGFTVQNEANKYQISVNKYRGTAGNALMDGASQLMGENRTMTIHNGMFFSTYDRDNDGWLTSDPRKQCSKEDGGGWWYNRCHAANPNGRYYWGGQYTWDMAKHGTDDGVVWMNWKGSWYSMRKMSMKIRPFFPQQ
T2 sequence (P02679 27-437 isoform P02679-2 limits assumed): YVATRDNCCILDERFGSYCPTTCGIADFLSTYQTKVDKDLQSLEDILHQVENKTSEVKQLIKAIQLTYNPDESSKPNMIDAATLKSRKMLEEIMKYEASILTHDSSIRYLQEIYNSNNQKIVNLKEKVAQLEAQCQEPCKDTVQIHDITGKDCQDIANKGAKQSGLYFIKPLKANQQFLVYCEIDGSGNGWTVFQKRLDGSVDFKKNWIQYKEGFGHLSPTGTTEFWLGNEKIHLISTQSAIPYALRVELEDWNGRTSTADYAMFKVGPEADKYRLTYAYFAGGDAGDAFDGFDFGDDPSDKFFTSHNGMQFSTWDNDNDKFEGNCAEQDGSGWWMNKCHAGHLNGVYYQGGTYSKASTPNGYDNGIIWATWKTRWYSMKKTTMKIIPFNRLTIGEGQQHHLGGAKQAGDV
The note with it: SOFIA-tPA assay; read-out: KD of tPA-fibrin binding reported by Angles-Cano (1986); cited from earlier work.

For the substance “tPA: Recombinant tissue-plasminogen activator (Activase®, Genentech Inc.), used as the thrombolytic agent [reference compound]”, the “decrease in time for recanalization” value with occluded femoral artery is recorded as 80%. The results for the Kd with fibrinogen αC domains and with fibrin were 0.033 ± 0.005 µM and 0.0014 ± 0.002 µM, respectively.
